Laboratory results as given in PMC9253517 (The Journal of Experimental Medicine, 2022).

Key:
[1] = biological target: SARS-CoV-2 Wuhan-Hu-1 NTD (SARS-CoV-2, UniProt P0DTC2); assay: cell-based or functional assay
[2] = biological target: SARS-CoV-2 Wuhan-Hu-1 NTD (SARS-CoV-2, UniProt P0DTC2 14-307); assay: cell-based or functional assay

Row | Binder | neutralisation IC50, WT (293TAce2) [1] [ng/mL] | neutralisation IC50, WT (293TAce2) [2] [ng/mL]
1 | JN220 (antibody, V domains shown) VH: VQLVESGGGVVQPGRSLRLSCAASGFTFSSYTMHWVRQAPGKGLEWVAVISYDGSNKYYADSVKGRFTISRDNSKNTLYLQMNSLRAEDTAVYYCAISSGWYSMSGAFDIWGQGTMVTVSS VL: QSALTQPRSVSGSPGQSVTISCTGTSSDVGGYNYVSWYQQHPGKAPKLMIYDVSKRPSGVPDRFSGSKSGNTASLTISGLQAEDEADYYCCSYAGSYRVFGTGTKVTVL | > 1000 | 
2 | JN227 (antibody, V domains shown) VH: QLQLQESGPGLVKPSETLSLTCTVSGGSISSSSYYWGWIRQPPGKGLEWIGSIYYSGSTYYNPSLKSRVTISVDTSKNQFSLKLSSVTAADTAVYYCAREGVITIFGVAQFDYWGQGTLVTVSS VL: not shown |  | > 1000
3 | JN138 (antibody, V domains shown) VH: QVQLVQSGTEVKKPGASVKVSCKASGYTFTSYYMHWVRQAPGQGLEWMGIINPSGGSTSYAQKFQGRVTMTRDTSTSTVYMELSSLRSEDTAVYYCARAELGSGSYPYYGMDVWGKGTTVTVSS VL: SYELTQPPSVSVSPGQTARITCSGDALPKQYAYWYQQKPGQAPVLVIYKDSERPSGIPERFSGSSSGTTVTFTISGVQAEDEADYYCQSADSSGSYVVFGGGTKLTVL |  | 401
4 | JN139 (antibody, V domains shown) VH: QVQLQESGPGLVKPSETLSLTCTVSGGSISNYFWSWIRQPPGQGLEWIGYIFYNGDTTYNPSLKSRVTISVDTSKNQFSLKLSSVTAADTAVYYCARDYYDSRGVFHGGFDSWGQGILVTVSS VL: DIVMTQSPDSLAVSLGERATINCKSSQSVLYSSNSRNYLAWYQQRPGQPPKRLIYWASTRESGVPDRFSGSGSGTDFTLTISSLQAEDVAVYYCQQYYTNPPWTFGQGTKVEIK |  | > 1000
5 | JN106 (antibody, V domains shown) VH: EVQLVESGGGLVQPGGSLRLSCAASGFTFSENWMSWVRQAPGKGLEWVGNIKQDASEKYFVDSVKGRFTISRDNAKNSLYLQMDSLRAEDTAVYFCARWGYSNSYYYIDCWGQGTLVTVSS VL: QAVVTQEPSFSVSPGGTVTFTCGLTSGSVSASNHPSWYQQTPGQAPRTLMYGTNIRSSGVPDRFSGSILGNKAALTITGAQADDECDYYCVLYIGDGVWVFGGGTKLTVL |  | > 1000
6 | JN144 (antibody, V domains shown) VH: QVQLVQSGPEVKKPGASVKVSCKASDYTFTSYDIIWVRQAPGQGLEWMGWISTHNGNTNYAQELQGRVTMTRETSTSTAHMELRSLRSDDTAVYYCARGPNRYLRLLEWSIPADWFFDLWGRGTLVTVSS VL: EIVLTQSPGTLSLSPGDRATLSCRASQSVPSTSIAWYQQKPGQAPRLLFHGAASRAIGIPDRFSGSGSGTDFTLTISRLEPEDSAVYYCQHCGDSPPLLTFGPGTKVDIK |  | > 1000
7 | JN112 (antibody, V domains shown) VH: QVQLQESGPGLVKPSQTLSLTCTVSGGSISSGDYYWSWIRQPPGKGLEWIGYIYYSGSTYYNPSLKSRVTISVDTSKNQFSLKLSSVTAADTAVYYCAREGTIFGEPFDYWGQGTLVT VL: not shown | > 1000 | 
8 | JN135 (antibody, V domains shown) VH: QLQLQESGPGLVKPSETLSLTCTVSGGSISSSSYYWGWIRQPPGKGLEWIGSIYYSGSTYYNPSLKSRVTISVDTSKNQFSLKLSSVTAADTAVYYCARLIAATWTFGGVIFNWFDPWGQGTLVTVSS VL: not shown |  | 947
9 | JN140 (antibody, V domains shown) VH: not shown VL: QSALTQPASVSGSPGQSITISCTGTSSDVGSYNLVSWYQQHPGKAPKLMIYEVSKRPSGVSNRFSGSKSGNTASLTISGLQAEDEADYYCCSYAGSSTHHWVFGGGTKLTVL |  | > 1000
10 | JN131 (antibody, V domains shown) VH: EVQLVESGGGLVKPGGSLRLSCAASGFTFNSYSMNWVRQAPGKGLEWVSSISSSSNFIYYADSVKGRFTISRDNAKNSLYLQMNSLRAEDTAMYYCARDPGYRSSWFEVYYFDYWGPGTLVTVSS VL: QSALTQPASVSGSPGQSITISCTGTSSDVGSYNLVSWYQQHPGKAPKLVIYEVTKRPSGVSNRFSGSKSGNTASLTISGLQAEDEADYYCCSYGGSTTSPYVFGTGTKVTVL |  | > 1000
11 | JN034 (antibody, V domains shown) VH: QVQLQESGPGLVEPSQTLSLTCAVSGGSISGGDYYWSWIRQPPGKGLEWIGYIYYSGSTFYNPSLYSRLTISVDTSKNQFSLKLSSVTAADTAVYYCAREGPAIFKIPNGFDIWGQGTMVTVSS VL: not shown |  | > 1000
12 | JN145 (antibody, V domains shown) VH: QVQLVQSGAEVKKPGASVKVSCKASGYTFTSYYMHWVRQAPGQGLEWMGIINPSGGSTSYAQKFQGRVTMTRDTSTSTVYMELSSLRSEDTAVYYCARGESDDYVWGSYRYTNNWFDPWGQGTLVTVSS VL: not shown |  | 688
13 | JN136 (antibody, V domains shown) VH: QVQLVESGGGVVQPGRSLRLSCAASGFTFSSYAMHWVRQAPGKGLEWVAVISYDGSNKYYADSVKGRFTISRDNSKNTLYLQMNSLRAEDTAVYYCARELAWRGITIFGVVIYNPFDYWGQGTLVTVSS VL: not shown |  | > 1000
14 | JN229 (antibody, V domains shown) VH: QVQLVQSGAEVKKPGSSVKVSCKASGGRFSSTAISWVRQAPGQGLEWMGGIIPIFGAPTDVQKFQGRVTITADQSTSTAYMELSNLRSEDTAVYYCATLGNYDFLTGNTFSYFDYWGQGTLVTVSS VL: NFMLTQPHSVSESLGKTVTISCTRTSGSIASDYVQWYQQRPGSSPTTVIYENFQRPSGVPDRFSASVDSSSNSASLTISGLRAEDEADYYCQSHDRSDFLPVFGGGTQLTVL |  | > 1000
15 | JN038 (antibody, V domains shown) VH: QVQLVQSGAEVKKPGSSVKVSCKASGGRFSSTAISWVRQAPGQGLEWMGGIIPIFGAPTDVQKFQGRVTITADQSTSTAYMELSNLRSEDTAVYYCATLGNYDFLTGNTFSYFDYWGQGTLVTVSS VL: DIQLTQSPSSLSASVGDRVTITCRAGQSIGNYLNWYQQKPGKAPKVLIYGASSLQSGVPSRFSGSGSGTDFTLTISSLQPEDFASYYCQQSFTTPLTFGGGTKVEIK |  | > 1000
16 | JN130 (antibody, V domains shown) VH: QVQLQESGPGLVKPSQTLSLTCTVSGGSISSGDYYWSWIRQPPGKGLEWIGYIYYSGSTYYNPSLKSRVTISVDTSKNQFSLKLSSVTAADTAVYYCARVLRFYDNIWENYRLPRYFDYWGQGTLVTVSS VL: QSALTQPRSVSGSPGQSVSISCTGTSSDVGGSEYVSWYQQHPGKAPKLMIYDVNQRPSGVPARFSGSKSGNTASLTISGLQAEDEADYYCCSYAGTYNFEVFGGGTKLSVL |  | > 1000
17 | JN020 (antibody, V domains shown) VH: EVQLVESGGDLVRRGESLRLSCAASGFTFSNHWMTWVRQAPGRGLEWVANIEGDGSDKYYVDSVKGRFTISRDNARNLLFLYMNALRGDDTAIYYCARHSATYHGLDQWGQGTLVTVSS VL: LTQPRSVSGSPGQSVTISCTGTSSDVGGYIFVSWYQRHPGKAPKLILFHVDKRPSGVPDRFSGSRSGNTASLTISGLQTEDEADYDCYSFAGTIWMFGGGTRLTVL | > 1000 | 
18 | JN011 (antibody, V domains shown) VH: VQLVESGGGVVQPGRSLRLSCAASGFTFSSYAMHWVRQAPGKGLEWVAVISYDGSNKYYADSVKGRFTISRDNSKNTLYLQMNSLRAEDTAVYYCAGSLGEEYYYYYYGMDVWGQGTTVTVSS VL: NFMLTQPHSVSESPGKTVTISCTGSSGSIASNYVQWYQQRPGSAPTTVIYEDNQRPSGVPDRFSGSIDSSSNSASLTISGLKTEDEADYYCQSYDSSNWVFGGGTKLTVL | > 1000 | 
19 | JN024 (antibody, V domains shown) VH: QVQLQESGPKLMKPSQTLSLTCAVSGASIRSGGYYWSWIRQHPGKGLEWIGYIYYSGSTYYNPSLKSRATISVDTSKNQFSLKLTSVTAADTAVYYCARAGRWFGELFRGGGYFDYWGLGTLVTVSS VL: AIRMTQSPSSLSASVGDRVTITCQASQDIGIFLNWYQQKSGEAPKLLIYDASNLETGVPSRFSGSGSGTDFIFIIRNLQPEDSATYYCQQHNHLPRVTFGPGTKVDIK | > 1000 | 
20 | JN142 (antibody, V domains shown) VH: QVQLVQSGAEVKKPGASVKVSCKASGYTFTSYDINWVRQATGQGLEWMGWMNPNSGNTGYAQKFQGRVTMTRNTSISTAYMELSSLRSEDTAVYYCARVLAPYDYVWGSYRYDNWFDPWGQGTLVTVSS VL: QSVLTQPPSVSAAPGQKVTISCSGSSSNIGNNYVSWYQQLPGTAPKLLIYDNNKRPSGIPDRFSGSKSGTSATLGITGLQTGDEADYYCGTWDSSLSALFGGGTKLTVL |  | > 1000
21 | JN108 (antibody, V domains shown) VH: not shown VL: QSALTQPASVSGSLGQSITISCTGTSSDVGSYNLVSWYQQHPGKVPKLMIYEANKRASGVSDRFSGSKTDNTASLTISGLQAEDEADYYCCSYAGSRTHVIFGGGTKLTV | > 1000 | 
22 | JN111 (antibody, V domains shown) VH: QVQLQESGPGLVRPSETLSLTCTVSGASITSYFWTWIRQAPGKGLEWIGYIYYSGSTNYNPSLKSRGTISVDTSKNQFSLKLSSVTAADTAVYYCARGMSDVVIVPAALSFGYDDAYYYYYYMDVWGKGTTVTVSS VL: QSALTQPASVSGSLGQSITISCTGTSSDVGSYNLVSWYQQHPGKVPKLMIYEANKRASGVSDRFSGSKTDNTASLTISGLQAEDEADYYCCSYAGSRTHVIFGGGTKLTV | > 1000 | 
23 | JN133 (antibody, V domains shown) VH: QLQLQESGPGLVKPSETLSLTCTVSGGSISSGSNYWGWIRQPPGKGLEWIGTIYYSGATYFSPSLKNRITISVDTSKNQFSLRLSSVIAADTAVYYCARLPFQNYYFYGMDVWGKGTTVTVSS VL: SYELTQPPSVSVSPGQTARITCSGDVLPKQYAYWYQQKPGQAPVLVISKDSERPSGIPERFSGSSSGTTVTLTISGVQGEDEADYHCQSADSSGTWVFGGGTKLTVL |  | > 1000
24 | JN141 (antibody, V domains shown) VH: EVQLVESGGGLVQPGGSLRLSCAASGFTFSSYSMNWVRQAPGKGLEWVSYISSSSSTISYADSVKGRFTISRDNAKNSLYLQMNSLRAEDTAVYYCASGKGVGFDYWGQGTLVTVSS VL: not shown |  | > 1000
